{"source": "paper PMC10630626", "binders": {"B1": {"name": "anti-idiotypic nanobody for Palivizumab 1 (AIP1^VHH), soluble (VHH)", "VHH": "DVQLQESGGGLVQAGGSLRLSCVASGLTFRYDMGWFRQAPGKEREFVAQITWRGGSATYYADSVKGRFTIARDIAKNAVYLQMNSLKPEDTAVYYCAAAYGSAGYRPDEYDSWGQGTQVTVSS"}, "B2": {"name": "anti-idiotypic nanobody for Palivizumab 3 (AIP3^VHH), soluble (VHH)", "VHH": "DVQLQESGGGLVQPGGSLRLSCVASGRTWSIYAMGWFRQAPGKEREFVTAISISRSESVTHYAESVTGRFTISRDNAKNTLHLQMNSLKPEDTAVYFCAADRRSIDPHHTIDYWGQGTQVTVSS"}, "B3": {"name": "anti-idiotypic nanobody for Palivizumab 4 (AIP4^VHH), soluble (VHH)", "VHH": "DVQLQESGGGLVQAGGSLRLSCVASGRAFSRYDMGWFRQAPGKEREFVAQISWRGGSATSYADTVKGRFTIARDNAKNTVYLQMNSLKPEDTAVYYCNARTPTLSSWGQGTQVTVSS"}, "B4": {"name": "anti-idiotypic nanobody for Palivizumab 2 (AIP2^VHH), soluble (VHH)", "VHH": "DVQLQESGGGLVQAGGSLRLSCAASESLFRLNAMGWYRQAPGKQRELVAGITTSGDAVYADSVKGRFTISRDSAKNTVYLQTNNLKPEDTAVYYCNVRPRAGTWENARIGVWGQGTQVTVSS"}, "B5": {"name": "Palivizumab (antibody, V domains shown)", "VH": "QVTLRESGPALVKPTQTLTLTCTFSGFSLSTSGMSVGWIRQPPGKALEWLADIWWDDKKDYNPSLKSRLTISKDTSKNQVVLKVTNMDPADTATYYCARSMITNWYFDVWGAGTTVTVSS", "VL": "DIQMTQSPSTLSASVGDRVTITCKCQLSVGYMHWYQQKPGKAPKLLIYDTSKLASGVPSRFSGSGSGTEFTLTISSLQPDDFATYYCFQGSGYPFTFGGGTKLEIK"}, "B6": {"name": "Palivizumab single-chain variable fragment, light-heavy order, fused to IgG1 Fc (P^scFvLHFc) (Fc fusion)", "VH": "B5 VH", "VL": "B5 VL"}, "B7": {"name": "Palivizumab single-chain variable fragment, heavy-light order, fused to IgG1 Fc (P^scFvHLFc) (Fc fusion)", "VH": "B5 VH", "VL": "B5 VL"}}, "key": {"[1]": {"molecular_target": "Palivizumab single-chain variable fragment, light-heavy order, fused to IgG1 Fc (P^scFvLHFc)"}, "Palivizumab [2]": {"molecular_target": "Palivizumab", "assay": "ELISA; competitive: Palivizumab coated, HRP-conjugated anti-idiotypic IgG (AbD23967/HCA262P, 0.2 μg/ml; 1 nM in the legend) co-incubated with 0.1-100 nM soluble AIP1-4^VHH, 1% BSA in PBS, room temperature"}, "[3]": {"molecular_target": "Palivizumab single-chain variable fragment, heavy-light order, fused to IgG1 Fc (P^scFvHLFc)", "assay": "SPR; Palivizumab (about 1000 RU) or P^scFvFc variants (about 500 RU) captured on a Protein A chip, AIP^VHH as analyte; Biacore X100, 25 °C, PBS pH 7.4 with 0.05% P20, 30 μl/min, 120 s injection, 500 s dissociation, 1:1 binding model"}, "[4]": {"molecular_target": "Palivizumab single-chain variable fragment, light-heavy order, fused to IgG1 Fc (P^scFvLHFc)", "assay": "SPR; Palivizumab (about 1000 RU) or P^scFvFc variants (about 500 RU) captured on a Protein A chip, AIP^VHH as analyte; Biacore X100, 25 °C, PBS pH 7.4 with 0.05% P20, 30 μl/min, 120 s injection, 500 s dissociation, 1:1 binding model"}, "Palivizumab [5]": {"molecular_target": "Palivizumab", "assay": "SPR; Palivizumab (about 1000 RU) or P^scFvFc variants (about 500 RU) captured on a Protein A chip, AIP^VHH as analyte; Biacore X100, 25 °C, PBS pH 7.4 with 0.05% P20, 30 μl/min, 120 s injection, 500 s dissociation, 1:1 binding model"}, "[6]": {"molecular_target": "anti-idiotypic nanobody for Palivizumab 1 (AIP1^VHH), soluble"}, "[7]": {"molecular_target": "anti-idiotypic nanobody for Palivizumab 2 (AIP2^VHH), soluble"}, "[8]": {"molecular_target": "anti-idiotypic nanobody for Palivizumab 3 (AIP3^VHH), soluble"}, "[9]": {"molecular_target": "anti-idiotypic nanobody for Palivizumab 1 (AIP1^VHH), soluble", "remark": "listed apart in the source"}, "[10]": {"molecular_target": "anti-idiotypic nanobody for Palivizumab 1 (AIP1^VHH), soluble", "remark": "listed apart in the source"}, "[11]": {"molecular_target": "anti-idiotypic nanobody for Palivizumab 3 (AIP3^VHH), soluble", "remark": "listed apart in the source"}, "[12]": {"molecular_target": "anti-idiotypic nanobody for Palivizumab 3 (AIP3^VHH), soluble", "remark": "listed apart in the source"}, "[13]": {"molecular_target": "anti-idiotypic nanobody for Palivizumab 2 (AIP2^VHH), soluble", "remark": "listed apart in the source"}}}
{"binder": "B1", "values": [{"measurement": "IC50 of soluble AIP1^VHH (0.49-1000 nM) for proliferation of Ba/F3-gp130-AIP1^VHHgp130 cells induced by 2 nM P^scFvLHFc; blocks P^scFvLHFc with AIP1^VHHgp130", "setting": "[1]", "value": 2.79, "unit": "nM"}, {"measurement": "IC50", "setting": "Palivizumab [2]", "value": 1.76, "unit": "nM"}, {"measurement": "Kd", "setting": "[3]", "value": 0.0272, "unit": "nM"}, {"measurement": "Kd", "setting": "[4]", "value": 0.0098, "unit": "nM"}, {"measurement": "Kd", "setting": "Palivizumab [5]", "value": 0.026, "unit": "nM"}, {"measurement": "koff", "setting": "Palivizumab [5]", "value": "5.9e-05", "unit": "s⁻¹"}, {"measurement": "kon", "setting": "Palivizumab [5]", "value": "2.3e+06", "unit": "M⁻¹ s⁻¹"}]}
{"binder": "B2", "values": [{"measurement": "IC50 of soluble AIP3^VHH (0.49-1000 nM) for proliferation of Ba/F3-gp130-AIP1^VHHgp130 cells induced by 2 nM P^scFvLHFc; blocks P^scFvLHFc with AIP1^VHHgp130", "setting": "[1]", "value": 364, "unit": "nM"}, {"measurement": "IC50", "setting": "Palivizumab [2]", "value": 48.5, "unit": "nM"}, {"measurement": "Kd", "setting": "Palivizumab [5]", "value": 1.11, "unit": "nM"}]}
{"binder": "B3", "values": [{"measurement": "Kd", "setting": "Palivizumab [5]", "value": 3.14, "unit": "nM"}]}
{"binder": "B4", "values": [{"measurement": "IC50 of soluble AIP2^VHH (0.49-1000 nM) for proliferation of Ba/F3-gp130-AIP1^VHHgp130 cells induced by 2 nM P^scFvLHFc; blocks P^scFvLHFc with AIP1^VHHgp130", "setting": "[1]", "value": 83.1, "unit": "nM"}, {"measurement": "IC50", "setting": "Palivizumab [2]", "value": 4.4, "unit": "nM"}, {"measurement": "Kd", "setting": "Palivizumab [5]", "value": 2.16, "unit": "nM"}]}
{"binder": "B5", "values": [{"measurement": "EC50 of proliferation of Ba/F3-gp130-AIP1^VHHgp130 cells, Palivizumab cross-linked with a 6-fold molar excess of hFc-mAb", "setting": "[6]", "value": 215, "unit": "nM"}, {"measurement": "EC50 of proliferation of Ba/F3-gp130-AIP2^VHHgp130 cells, Palivizumab cross-linked with a 6-fold molar excess of hFc-mAb", "setting": "[7]", "value": 48.8, "unit": "nM"}, {"measurement": "EC50 of proliferation of Ba/F3-gp130-AIP3^VHHgp130 cells, Palivizumab cross-linked with a 6-fold molar excess of hFc-mAb", "setting": "[8]", "value": 2.71, "unit": "nM"}, {"measurement": "proliferation of Ba/F3-gp130 cells expressing AIP3^VHHgp130, Palivizumab 0.033-66 nM, percent of the maximal proliferation with HIL-6", "setting": "[8]", "value": 20, "unit": "%"}, {"measurement": "IC50 of Palivizumab (0.49-1000 nM) for proliferation of Ba/F3-gp130-AIP1^VHHgp130 cells induced by 2 nM P^scFvLHFc; blocks P^scFvLHFc with AIP1^VHHgp130", "setting": "[9]", "value": 8.28, "unit": "nM"}, {"measurement": "molar excess of Palivizumab over P^scFvLHFc (2 nM) for complete suppression of STAT3 phosphorylation in Ba/F3-gp130-AIP1^VHHgp130 cells (fold molar excess)", "setting": "[9]", "value": "> 8"}]}
{"binder": "B6", "values": [{"measurement": "EC50 of proliferation of Ba/F3-gp130-AIP1^VHHgp130 cells, P^scFvLHFc 0.00563-5.77 nM (Fig. 6H)", "setting": "[10]", "value": 0.38, "unit": "nM"}, {"measurement": "EC50 of proliferation of Ba/F3-gp130 cells expressing AIP1^VHHgp130, P^scFvLHFc 0.00053-93.5 nM (Fig. 6B)", "setting": "[10]", "value": 0.21, "unit": "nM"}, {"measurement": "lowest concentration that induced STAT3 phosphorylation in Ba/F3-gp130-AIP1^VHHgp130 cells (0.19 to 6 nM tested, Fig. 6I)", "setting": "[10]", "value": 1.5, "unit": "nM"}, {"measurement": "EC50 of proliferation of Ba/F3-gp130 cells expressing AIP3^VHHgp130, P^scFvLHFc 0.00053-93.5 nM (Fig. 6B)", "setting": "[11]", "value": 6.61, "unit": "nM"}, {"measurement": "caspase 3/7 activity in Ba/F3-gp130-AIP3^VHHFas cells, dimeric P^scFvLHFc 0.1-100 nM, percent of the activity with cross-linked 2× P^scFvLHFc", "setting": "[12]", "value": "< 50", "unit": "%"}]}
{"binder": "B7", "values": [{"measurement": "EC50 of proliferation of Ba/F3-gp130-AIP1^VHHgp130 cells, P^scFvHLFc 0.00056-100 nM (Fig. 6E)", "setting": "[10]", "value": 0.4, "unit": "nM"}, {"measurement": "EC50 of proliferation of Ba/F3-gp130-AIP1^VHHgp130 cells, P^scFvHLFc 0.00563-5.77 nM (Fig. 6H)", "setting": "[10]", "value": 0.5, "unit": "nM"}, {"measurement": "lowest concentration that induced STAT3 phosphorylation in Ba/F3-gp130-AIP1^VHHgp130 cells (0.19 to 6 nM tested, Fig. 6I)", "setting": "[10]", "value": 0.19, "unit": "nM"}, {"measurement": "EC50 of proliferation of Ba/F3-gp130-AIP2^VHHgp130 cells, P^scFvHLFc 0.00056-100 nM (Fig. 6E)", "setting": "[13]", "value": 0.7, "unit": "nM"}, {"measurement": "EC50 of proliferation of Ba/F3-gp130-AIP3^VHHgp130 cells, P^scFvHLFc 0.00056-100 nM (Fig. 6E)", "setting": "[11]", "value": 9.1, "unit": "nM"}]}
